± gives the standard deviation of the averaged measurements.

The nature of this series: total protein half-life in vivo (active degradation + dilution); higher = more stable protein.
Where [1] appears, read: E. coli NCM3722 delta-clpP delta-lon delta-hslV, growth: N-lim chemostat, doubling time 6 h.
Where [2] appears, read: E. coli NCM3722 delta-clpP, growth: N-lim chemostat, doubling time 6 h.
Where [3] appears, read: E. coli NCM3722 delta-hslV, growth: N-lim chemostat, doubling time 6 h.
The mark [4] stands for this setting: E. coli NCM3722 delta-lon, growth: N-lim chemostat, doubling time 6 h.
Setting [5] is: E. coli NCM3722 delta-smpB, growth: N-lim chemostat, doubling time 6 h.
Where [6] appears, read: wild type E. coli NCM3722, growth: C-lim chemostat, doubling time 3 h.
Setting [7] is: wild type E. coli NCM3722, growth: C-lim chemostat, doubling time 6 h.
Where [8] appears, read: wild type E. coli NCM3722, growth: C-lim chemostat, doubling time 12 h.
Where [9] appears, read: wild type E. coli NCM3722, growth: N-lim chemostat, doubling time 6 h.
[10] abbreviates: wild type E. coli NCM3722, growth: N-lim chemostat, doubling time 12 h.
The mark [11] stands for this setting: wild type E. coli NCM3722, growth: P-lim chemostat, doubling time 6 h.
Setting [12] is: wild type E. coli NCM3722, growth: P-lim chemostat, doubling time 12 h.

Consider “MLELLYTALLYLIQPLIWIRLWVRGRKAPAYRKRWGERYGFYRHPLKPGGIMLHSVSVGETLAAIPLVRALRHRYPDLPITVTTMTPTGSERVQSAFGKDVQHVYLPYDLPDALNRFLNKVDPKLVLIMETELWPNLIAALHKRKIPLVIANARLSARSAAGYAKLGKFVRRLLRRITLIAAQNEEDGARFVALGAKNNQVTVTGSLKFDISVTPQLAAKAVTLRRQWAPHRPVWIATSTHEGEESVVIAAHQALLQQFPNLLLILVPRHPERFPDAINLVRQAGLSYITRSSGEVPSTSTQVVVGDTMGELMLLYGIADLAFVGGSLVERGGHNPLEAAAHAIPVLMGPHTFNFKDICARLEQASGLITVTDATTLAKEVSSLLTDADYRSFYGRHAVEVLYQNQGALQRLLQLLEPYLPPKTH [P0AC75]”, for which the “total protein half-life in vivo” value under setting [1] was 5.95 ± 0.12 h; the “total protein half-life in vivo” value under setting [2] stood at 6.64 ± 0.62 h; the “total protein half-life in vivo” value under setting [3] was 6.5 ± 0.35 h; the “total protein half-life in vivo” value under setting [4] was 6.08 ± 0.49 h; the “total protein half-life in vivo” value under setting [5] was 6.219 ± 0.038 h; the “total protein half-life in vivo” value under setting [6] worked out at 3.23 ± 0.044 h. Moreover, the “total protein half-life in vivo” value runs as follows: under setting [7], 6.2 ± 0.5 h; under setting [8], 10.6 ± 1.9 h; under setting [9], 6.524 ± 0.011 h; under setting [10], 13.7 ± 1.2 h; under setting [11], 6.317 ± 0.014 h; under setting [12], 11.9 ± 0.48 h.

As for “MTDNNTALKKAGLKVTLPRLKILEVLQEPDNHHVSAEDLYKRLIDMGEEIGLATVYRVLNQFDDAGIVTRHNFEGGKSVFELTQQHHHDHLICLDCGKVIEFSDDSIEARQREIAAKHGIRLTNHSLYLYGHCAEGDCREDEHAHEGK [P0A9A9]”, the “total protein half-life in vivo” value is, setting by setting: under setting [1], 6.49 ± 0.92 h; under setting [2], 5.31 ± 0.6 h; under setting [3], 4.58 ± 1.7 h; under setting [4], 6.38 ± 0.37 h; under setting [5], 3.6 ± 0.55 h; under setting [6], 2.35 ± 0.2 h. Moreover, the “total protein half-life in vivo” value runs as follows: under setting [7], 4.31 ± 0.14 h; under setting [8], 8.38 ± 1.9 h; under setting [9], 4.58 ± 0.81 h; under setting [10], 11.3 ± 3.6 h; under setting [11], 5.27 ± 0.16 h; under setting [12], 11.5 ± 1.6 h.

Take “MHVFDNNGIELKAECSIGEEDGVYGLILESWGPGDRNKDYNIALDYIIERLVDSGVSQVVVYLASSSVRKHMHSLDERKIHPGEYFTLIGNSPRDIRLKMCGYQAYFSRTGRKEIPSGNRTKRILINVPGIYSDSFWASIIRGELSELSQPTDDESLLNMRVSKLIKKTLSQPEGSRKPVEVERLQKVYVRDPMVKAWILQQSKGICENCGKNAPFYLNDGNPYLEVHHVIPLSSGGADTTDNCVALCPNCHRELHYSKNAKELIEMLYVNINRLQK”: the “total protein half-life in vivo” value by setting is: under setting [1], 5.51 h; under setting [3], 4.2 h; under setting [4], 5.87 h; under setting [5], 4.87 h; under setting [9], 4.8 ± 0.71 h; under setting [10], 8.5 ± 1.1 h. Moreover, the “total protein half-life in vivo” value under setting [12] was 10.2 h.

Regarding “MLIPWQDLSPETLENLIESFVLREGTDYGEHERTLEQKVADVKRQLQCGEAVLVWSELHETVNIMPRSQFRE”, the “total protein half-life in vivo” value was 5.2 h under setting [1]; 3.21 h under setting [2]; 4.14 h under setting [4]; 3.93 h under setting [7]; 4.61 h under setting [11]; 7.98 h under setting [12].

As to “MEKNNEVIQTHPLVGWDISTVDSYDALMLRLHYQTPNKSEQEGTEVGQTLWLTTDVARQFISILEAGIAKIESGDFQVNEYRRH [P0AB33]”, under setting [1], the “total protein half-life in vivo” value is 4.09 h.

On to “MRVLIKNGTVVNADGQAKQDLLIESGIVRQLGNNISPQLPYEEIDATGCYVFPGGVDVHTHFNIDVGIARSCDDFFTGTRAAACGGTTTIIDHMGFGPNGCRLRHQLEVYRGYAAHKAVIDYSFHGVIQHINHAILDEIPMIVEEGLSSFKLYLTYQYKLNDDEVLQALRRLHESGALTTVHPENDAAIASKRAEFIAAGLTAPRYHALSRPLECEAEAIARMINLAQIAGNAPLYIVHLSNGLGLDYLRLARANHQPVWVETCPQYLLLDERSYDTEDGMKFILSPPLRNVREQDKLWCGISDGAIDVVATDHCTFSMAQRLQISKGDFSRCPNGLPGVENRMQLLFSSGVMTGRITPERFVELTSAMPARLFGLWPQKGLLAPGSDGDVVIIDPRQSQQIQHRHLHDNADYSPWEGFTCQGAIVRTLSRGETIFCDGTFTGKAGRGRFLRRKPFVPPVL”, for which the “total protein half-life in vivo” value is > 4 h under setting [6] and 12.1 h under setting [12].

Take “MRILLIEDDMLIGDGIKTGLSKMGFSVDWFTQGRQGKEALYSAPYDAVILDLTLPGMDGRDILREWREKGQREPVLILTARDALAERVEGLRLGADDYLCKPFALIEVAARLEALMRRTNGQASNELRHGNVMLDPGKRIATLAGEPLTLKPKEFALLELLMRNAGRVLSRKLIEEKLYTWDEEVTSNAVEVHVHHLRRKLGSDFIRTVHGIGYTLGEK”: the “total protein half-life in vivo” value came to 4.652 ± 0.039 h under setting [1]; 4.22 ± 0.3 h under setting [2]; 4.1 ± 0.33 h under setting [3]; 4.5 ± 0.27 h under setting [4]; 4.06 ± 0.37 h under setting [5]; 2.92 ± 0.042 h under setting [6]. The “total protein half-life in vivo” value under setting [7] amounted to 5.51 ± 0.24 h; the “total protein half-life in vivo” value under setting [8] is 10.8 ± 1.9 h; the “total protein half-life in vivo” value under setting [9] is 4.2 ± 0.12 h; the “total protein half-life in vivo” value under setting [10] came out at 6.35 ± 0.32 h; the “total protein half-life in vivo” value under setting [11] worked out at 5.267 ± 0.0074 h; the “total protein half-life in vivo” value under setting [12] is 11 ± 0.5 h.

“MSWISPELIEILLTILKAVVILLVVVTCGAFMSFGERRLLGLFQNRYGPNRVGWGGSLQLVADMIKMFFKEDWIPKFSDRVIFTLAPMIAFTSLLLAFAIVPVSPGWVVADLNIGILFFLMMAGLAVYAVLFAGWSSNNKYSLLGAMRASAQTLSYEVFLGLSLMGVVAQAGSFNMTDIVNSQAHVWNVIPQFFGFITFAIAGVAVCHRHPFDQPEAEQELADGYHIEYSGMKFGLFFVGEYIGIVTISALMVTLFFGGWQGPLLPPFIWFALKTAFFMMMFILIRASLPRPRYDQVMSFGWKICLPLTLINLLVTAAVILWQAQ [P0AFD4]”: the “total protein half-life in vivo” value reads like this: under setting [2], 6.49 ± 0.27 h; under setting [3], 5.73 ± 0.34 h; under setting [4], 6.09 ± 0.59 h; under setting [5], 6.41 ± 1.4 h; under setting [7], 6.75 ± 1.2 h; under setting [8], 13.8 ± 2 h. In addition, the “total protein half-life in vivo” value turned out to be 6.53 ± 0.46 h under setting [9], 9.26 ± 2 h under setting [10], 6.237 ± 0.017 h under setting [11] and 13.1 ± 3 h under setting [12].

Values taken from the supplement of paper PMC11246515.
